Experimental data reported in IntAct's records for PubMed 24056087.

B1: ADP-ribosylation factor 6 (Homo sapiens), P62330 (parent)
chain: MGKVLSKIFGNKEMRILMLGLDAAGKTTILYKLKLGQSVTTIPTVGFNVETVTYKNVKFNVWDVGGQDKIRPLWRHYYTGTQGLIFVVDCADRDRIDEARQELHRIINDREMRDAIILIFANKQDLPDAMKPHEIQEKLGLTRIRDRNWYVQPSCATSGDGLYEGLTWLTSNYKS
partner: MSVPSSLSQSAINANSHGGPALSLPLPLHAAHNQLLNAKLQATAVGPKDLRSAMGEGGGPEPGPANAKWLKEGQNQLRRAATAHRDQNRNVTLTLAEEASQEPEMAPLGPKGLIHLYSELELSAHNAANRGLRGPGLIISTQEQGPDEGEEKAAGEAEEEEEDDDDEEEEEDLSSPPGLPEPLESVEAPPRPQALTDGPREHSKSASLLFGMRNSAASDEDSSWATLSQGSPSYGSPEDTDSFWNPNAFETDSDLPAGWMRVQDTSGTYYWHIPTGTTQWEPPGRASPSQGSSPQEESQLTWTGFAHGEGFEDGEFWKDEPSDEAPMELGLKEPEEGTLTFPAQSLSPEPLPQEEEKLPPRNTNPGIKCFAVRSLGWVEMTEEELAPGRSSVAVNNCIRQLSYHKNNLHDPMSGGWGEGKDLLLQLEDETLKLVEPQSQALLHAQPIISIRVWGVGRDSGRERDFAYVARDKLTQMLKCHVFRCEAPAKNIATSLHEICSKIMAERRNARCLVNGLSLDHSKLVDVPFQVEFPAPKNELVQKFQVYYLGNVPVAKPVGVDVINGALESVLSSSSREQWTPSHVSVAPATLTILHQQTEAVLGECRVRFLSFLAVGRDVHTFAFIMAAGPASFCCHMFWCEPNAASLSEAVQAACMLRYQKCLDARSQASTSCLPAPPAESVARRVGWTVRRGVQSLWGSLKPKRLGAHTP
B2: ADP-ribosylation factor 6 (Homo sapiens), P62330 (parent)
chain: B1 chain
partner: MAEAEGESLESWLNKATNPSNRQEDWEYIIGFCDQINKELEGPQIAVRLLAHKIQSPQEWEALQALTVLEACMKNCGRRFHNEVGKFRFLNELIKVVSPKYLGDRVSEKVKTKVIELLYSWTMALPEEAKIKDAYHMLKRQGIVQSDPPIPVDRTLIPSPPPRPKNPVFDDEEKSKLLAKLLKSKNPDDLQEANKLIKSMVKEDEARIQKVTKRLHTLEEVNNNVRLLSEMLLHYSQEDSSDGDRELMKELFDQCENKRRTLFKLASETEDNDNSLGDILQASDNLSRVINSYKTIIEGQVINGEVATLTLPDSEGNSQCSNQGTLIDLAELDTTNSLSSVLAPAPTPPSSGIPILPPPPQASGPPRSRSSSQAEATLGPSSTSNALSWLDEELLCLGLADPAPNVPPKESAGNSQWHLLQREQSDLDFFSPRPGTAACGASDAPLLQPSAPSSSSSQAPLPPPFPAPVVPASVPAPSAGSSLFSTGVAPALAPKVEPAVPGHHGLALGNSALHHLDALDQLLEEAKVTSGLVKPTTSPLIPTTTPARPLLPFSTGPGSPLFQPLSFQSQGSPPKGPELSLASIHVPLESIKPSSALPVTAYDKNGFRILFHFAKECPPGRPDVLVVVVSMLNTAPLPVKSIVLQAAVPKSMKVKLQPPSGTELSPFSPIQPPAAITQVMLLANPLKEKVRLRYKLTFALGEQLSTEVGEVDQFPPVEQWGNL

Variants of: B1
Settings: with apbb1_human APBB1, O00213

Variant | effect of a mutation on the interaction
T27N | increasing interaction strength
Q67L | disrupting interaction strength

Variants of: B2
Settings: with gga3_human GGA3, Q9NZ52

Variant | effect of a mutation on the interaction
T27N | decreasing interaction strength
Q67L | increasing interaction strength
